Assay results from paper PMC7613265, “Multi-scale ensemble properties of the Escherichia coli RNA degradosome” (Molecular microbiology, 2021).

Target: the molecule itself
Test: cryo-EM structure; single particle analysis of RNase E (1-529) at 10 uM without RNA, 8 mM CHAPSO; 7.8 A reconstruction, C1

B1: RNase E catalytic domain (1-529) (domain or fragment)
chain: not shown
notes: RNase E, E. coli, catalytic domain, residues 1-529; Studied without RNA; 8 mM CHAPSO added before grid freezing; also called RNase E catalytic core; RNase E (1-529); source: E. coli BL21(DE3), plasmid pRne529-N, purified (Ni chelating column, gel filtration)
- stoichiometry N: 4
